The values below are quoted from earlier work in paper PMC3616122.

The target of this series is Cul3 NTD (Homo sapiens) (UniProt Q13618). The series is described as follows: ITC. (In general: Isothermal titration calorimetry measures the heat released or taken up as one component is titrated into another.)
Sequence of Cul3 NTD (Homo sapiens) (Q13618 20-381): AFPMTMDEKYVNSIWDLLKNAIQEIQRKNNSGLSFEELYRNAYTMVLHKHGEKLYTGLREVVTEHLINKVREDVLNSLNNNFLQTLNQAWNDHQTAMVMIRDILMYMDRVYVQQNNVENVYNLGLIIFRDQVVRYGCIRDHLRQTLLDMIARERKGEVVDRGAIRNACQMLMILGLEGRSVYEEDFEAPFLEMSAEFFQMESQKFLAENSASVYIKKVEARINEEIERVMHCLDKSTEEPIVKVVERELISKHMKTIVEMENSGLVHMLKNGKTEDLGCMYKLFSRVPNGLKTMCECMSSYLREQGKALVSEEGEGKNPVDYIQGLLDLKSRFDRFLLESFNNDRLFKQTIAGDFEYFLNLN

Sequence of SPOP BTB (O43791 170-300): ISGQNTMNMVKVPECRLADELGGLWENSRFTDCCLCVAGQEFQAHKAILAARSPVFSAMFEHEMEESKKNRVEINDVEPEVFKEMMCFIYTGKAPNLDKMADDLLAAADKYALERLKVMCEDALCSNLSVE
Sequence of SPOP BTB-BACK (O43791 177-359): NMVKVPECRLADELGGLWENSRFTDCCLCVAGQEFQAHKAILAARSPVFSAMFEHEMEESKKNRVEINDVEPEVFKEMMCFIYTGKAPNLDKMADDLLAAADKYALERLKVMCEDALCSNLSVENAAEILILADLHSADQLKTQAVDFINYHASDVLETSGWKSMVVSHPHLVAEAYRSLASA

What is called Kd is the concentration at which binding is half-saturated. On to SPOP BTB (from UniProt O43791), for which the Kd is 1000 µM. For the substance SPOP BTB-BACK (from UniProt O43791), the Kd is 0.013 µM.
